Residue numbers refer to the chain shown, from its start. Names and notes keep the numbering of the source.

B1: G236S (antibody, human IgG1, kappa)
heavy: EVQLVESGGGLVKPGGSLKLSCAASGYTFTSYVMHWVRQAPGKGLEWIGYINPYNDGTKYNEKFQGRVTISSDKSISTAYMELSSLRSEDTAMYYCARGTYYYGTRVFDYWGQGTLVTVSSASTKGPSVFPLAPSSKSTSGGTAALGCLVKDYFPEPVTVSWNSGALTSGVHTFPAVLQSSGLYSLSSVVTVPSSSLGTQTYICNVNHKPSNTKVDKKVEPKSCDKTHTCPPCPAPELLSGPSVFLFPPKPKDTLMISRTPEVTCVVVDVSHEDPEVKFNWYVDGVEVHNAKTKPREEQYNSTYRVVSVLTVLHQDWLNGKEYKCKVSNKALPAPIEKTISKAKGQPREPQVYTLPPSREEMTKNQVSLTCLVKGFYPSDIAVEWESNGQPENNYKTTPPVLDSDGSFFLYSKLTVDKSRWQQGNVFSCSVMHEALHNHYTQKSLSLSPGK
light: DIVMTQSPATLSLSPGERATLSCRSSKSLQNVNGNTYLYWFQQKPGQSPQLLIYRMSNLNSGVPDRFSGSGSGTEFTLTISSLEPEDFAVYYCMQHLEYPITFGAGTKLEIKRTVAAPSVFIFPPSDEQLKSGTASVVCLLNNFYPREAKVQWKVDNALQSGNSQESVTEQDSKDSTYSLSSTLTLSKADYEKHKVYACEVTHQGLSSPVTKSFNRGEC
notes: HuAM4G7 anti-CD19 IgG1 (m1) with this Fc substitution, EU index; copies: 2 + 2
B2: L235Y/S267E/H268E (antibody, human IgG1, kappa)
heavy: EVQLVESGGGLVKPGGSLKLSCAASGYTFTSYVMHWVRQAPGKGLEWIGYINPYNDGTKYNEKFQGRVTISSDKSISTAYMELSSLRSEDTAMYYCARGTYYYGTRVFDYWGQGTLVTVSSASTKGPSVFPLAPSSKSTSGGTAALGCLVKDYFPEPVTVSWNSGALTSGVHTFPAVLQSSGLYSLSSVVTVPSSSLGTQTYICNVNHKPSNTKVDKKVEPKSCDKTHTCPPCPAPELYGGPSVFLFPPKPKDTLMISRTPEVTCVVVDVEEEDPEVKFNWYVDGVEVHNAKTKPREEQYNSTYRVVSVLTVLHQDWLNGKEYKCKVSNKALPAPIEKTISKAKGQPREPQVYTLPPSREEMTKNQVSLTCLVKGFYPSDIAVEWESNGQPENNYKTTPPVLDSDGSFFLYSKLTVDKSRWQQGNVFSCSVMHEALHNHYTQKSLSLSPGK
light: B1 light
notes: HuAM4G7 anti-CD19 IgG1 (m1) with these Fc substitutions, EU index; copies: 2 + 2
B3: L234F/S267E (antibody, human IgG1, kappa)
heavy: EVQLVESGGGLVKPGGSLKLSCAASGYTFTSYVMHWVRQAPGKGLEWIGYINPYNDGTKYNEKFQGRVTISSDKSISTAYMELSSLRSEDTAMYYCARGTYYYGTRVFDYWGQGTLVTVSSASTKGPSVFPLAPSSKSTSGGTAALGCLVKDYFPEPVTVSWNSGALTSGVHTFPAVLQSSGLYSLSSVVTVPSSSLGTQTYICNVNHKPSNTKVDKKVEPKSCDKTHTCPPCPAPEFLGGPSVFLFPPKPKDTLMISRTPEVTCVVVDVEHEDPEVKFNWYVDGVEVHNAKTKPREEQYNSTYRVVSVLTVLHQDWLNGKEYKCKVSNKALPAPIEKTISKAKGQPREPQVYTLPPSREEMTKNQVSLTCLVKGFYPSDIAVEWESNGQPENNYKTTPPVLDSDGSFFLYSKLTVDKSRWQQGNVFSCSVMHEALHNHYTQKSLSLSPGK
light: B1 light
notes: as for B2
B4: L235Y/S239D/S267E (antibody, human IgG1, kappa)
heavy: B2 heavy with S243D, E272H
light: B1 light
notes: as for B2
B5: L235Y/G236D/S267E (antibody, human IgG1, kappa)
heavy: B2 heavy with G240D, E272H
light: B1 light
notes: as for B2
B6: S267E/A327D (antibody, human IgG1, kappa)
heavy: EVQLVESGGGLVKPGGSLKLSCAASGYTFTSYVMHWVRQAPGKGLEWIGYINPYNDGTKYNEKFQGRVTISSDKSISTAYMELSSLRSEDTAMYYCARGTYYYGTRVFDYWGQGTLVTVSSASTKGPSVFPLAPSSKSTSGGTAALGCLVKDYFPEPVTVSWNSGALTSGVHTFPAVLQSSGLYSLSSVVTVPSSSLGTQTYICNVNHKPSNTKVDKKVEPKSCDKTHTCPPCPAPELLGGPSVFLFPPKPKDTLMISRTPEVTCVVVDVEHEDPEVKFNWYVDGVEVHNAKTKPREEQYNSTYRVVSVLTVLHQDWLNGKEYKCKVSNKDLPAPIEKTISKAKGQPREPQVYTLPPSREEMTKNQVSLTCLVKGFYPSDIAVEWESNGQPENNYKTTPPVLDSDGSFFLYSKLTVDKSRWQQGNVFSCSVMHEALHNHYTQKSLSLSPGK
light: B1 light
notes: as for B2
B7: L235D/S267E (antibody, human IgG1, kappa)
heavy: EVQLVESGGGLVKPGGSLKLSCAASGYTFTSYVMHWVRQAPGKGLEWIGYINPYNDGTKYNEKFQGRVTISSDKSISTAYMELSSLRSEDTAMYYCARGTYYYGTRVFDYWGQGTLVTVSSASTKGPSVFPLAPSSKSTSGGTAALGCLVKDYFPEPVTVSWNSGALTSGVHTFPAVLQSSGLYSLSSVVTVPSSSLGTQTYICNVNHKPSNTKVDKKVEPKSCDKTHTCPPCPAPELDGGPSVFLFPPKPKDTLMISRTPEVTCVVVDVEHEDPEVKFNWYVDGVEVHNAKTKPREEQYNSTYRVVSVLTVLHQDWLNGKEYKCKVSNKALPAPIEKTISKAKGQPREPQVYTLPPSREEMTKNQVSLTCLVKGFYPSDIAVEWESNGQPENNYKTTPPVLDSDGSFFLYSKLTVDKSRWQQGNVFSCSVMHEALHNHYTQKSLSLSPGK
light: B1 light
notes: as for B2
B8: L235Y/S267E/L328F (antibody, human IgG1, kappa)
heavy: B2 heavy with E272H, L332F
light: B1 light
notes: as for B2
B9: L235D/S267E/L328F (antibody, human IgG1, kappa)
heavy: B2 heavy with Y239D, E272H, L332F
light: B1 light
notes: as for B2
B10: L235I (antibody, human IgG1, kappa)
heavy: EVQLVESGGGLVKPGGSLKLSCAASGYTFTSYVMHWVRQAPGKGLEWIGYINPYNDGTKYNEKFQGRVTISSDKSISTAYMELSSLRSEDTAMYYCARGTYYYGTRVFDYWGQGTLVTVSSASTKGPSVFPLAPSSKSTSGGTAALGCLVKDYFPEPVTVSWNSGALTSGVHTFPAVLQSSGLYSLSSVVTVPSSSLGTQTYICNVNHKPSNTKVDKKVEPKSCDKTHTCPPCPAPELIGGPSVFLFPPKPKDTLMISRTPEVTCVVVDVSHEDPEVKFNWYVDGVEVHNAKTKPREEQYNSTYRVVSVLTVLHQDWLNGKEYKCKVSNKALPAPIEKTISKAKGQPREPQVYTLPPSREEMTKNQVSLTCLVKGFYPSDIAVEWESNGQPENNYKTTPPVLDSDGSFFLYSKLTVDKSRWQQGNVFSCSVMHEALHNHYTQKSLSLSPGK
light: B1 light
notes: as for B1
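Throughout, for Fold vs WT IgG1 (off-rate): fold improvement over WT IgG1 so higher means slower dissociation than WT.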

The target of one experiment is T1, human FcγRIIb receptor protein (R&D Systems) (human, UniProt P31994 46-217).
T1 construct: Bought protein injected over captured antibody in Biacore; also called CD32b
T1 sequence (looked up): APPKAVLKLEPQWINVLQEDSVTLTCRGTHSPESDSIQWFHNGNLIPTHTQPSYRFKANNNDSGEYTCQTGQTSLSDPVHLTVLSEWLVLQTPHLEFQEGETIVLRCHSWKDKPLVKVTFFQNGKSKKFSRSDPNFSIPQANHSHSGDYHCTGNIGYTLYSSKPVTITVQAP
Description: SPR. (In general: Surface plasmon resonance follows binding to a sensor surface in real time, without labels.)
Take B1: the “Fold vs WT IgG1” value is 1.02 fold and the dissociation constant (Kd) turned out to be 1440 nM.

Regarding B2, the “Fold vs WT IgG1” value came to 69.9 fold and binding was put at a Kd of 21 nM.

As to B3, the “Fold vs WT IgG1” value is 26.4 fold and the Kd is 55.7 nM.

For B4, the “Fold vs WT IgG1” value was found to be 116 fold and the Kd is 12.6 nM.

In the case of B5, the “Fold vs WT IgG1” value amounted to 25 fold and binding was put at a Kd of 58.7 nM.

In the case of B6, the “Fold vs WT IgG1” value was determined as 21.2 fold and binding was characterised by a dissociation constant (Kd) of 69.1 nM.

As for B7, the “Fold vs WT IgG1” value is 16.7 fold and the affinity, expressed as Kd, was 88.1 nM.

On to B8, for which the “Fold vs WT IgG1” value worked out at 187 fold and binding was put at a Kd of 7.83 nM.

B9: the “Fold vs WT IgG1” value is 80.4 fold and binding was characterised by a dissociation constant (Kd) of 18.2 nM.

For B10, the “Fold vs WT IgG1” value stood at 0.908 fold and the Kd turned out to be 1620 nM.

In another experiment the target is T2, human FcγRI receptor protein (R&D Systems) (human, UniProt P12314 16-288).
T2 construct: also called soluble FcγRI; solFcγRI
T2 sequence (P12314 16-288 limits assumed): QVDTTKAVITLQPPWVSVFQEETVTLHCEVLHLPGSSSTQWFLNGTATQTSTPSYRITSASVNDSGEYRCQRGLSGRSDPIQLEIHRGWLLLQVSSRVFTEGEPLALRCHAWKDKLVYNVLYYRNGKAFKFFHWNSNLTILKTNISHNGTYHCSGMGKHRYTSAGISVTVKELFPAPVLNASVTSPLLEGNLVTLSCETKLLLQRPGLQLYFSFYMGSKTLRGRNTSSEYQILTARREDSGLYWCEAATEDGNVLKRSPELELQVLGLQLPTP
Description: SPR.
For the molecule B1, the “Fold vs WT IgG1” value came out at 0.0268 fold and the affinity, expressed as Kd, was 12.3 nM.

Consider B2, for which the “Fold vs WT IgG1” value is 0.0103 fold and the Kd stood at 32.1 nM.

With B3, the “Fold vs WT IgG1” value was found to be 0.661 fold and binding was characterised by a dissociation constant (Kd) of 0.498 nM.

On to B4, for which the “Fold vs WT IgG1” value amounted to 1.07 fold and binding was put at a Kd of 0.307 nM.

As to B5, the binding result is given as “no binding”.

As for B6, the “Fold vs WT IgG1” value is 1.66 fold and the Kd is 0.198 nM.

For B7, the “Fold vs WT IgG1” value turned out to be 0.00039 fold and the Kd stood at 854 nM.

In the case of B8, the “Fold vs WT IgG1” value was 0.00436 fold and the affinity, expressed as Kd, was 75.5 nM.

As for B9, the “Fold vs WT IgG1” value is 0.00057 fold and binding was put at a Kd of 573 nM.

For the molecule B10, the “Fold vs WT IgG1” value was found to be 0.0197 fold and binding was put at a Kd of 16.7 nM.

A further experiment deals with T3, human FcγRIIa (131R), His- and GST-tagged (human, UniProt P12318 34-217).
T3 construct: Expressed in HEK293T cells, purified by nickel chromatography; also called R131 FcγRIIa; not shown: 6xHis and GST tags of the pTT5 vector
T3 sequence (looked up): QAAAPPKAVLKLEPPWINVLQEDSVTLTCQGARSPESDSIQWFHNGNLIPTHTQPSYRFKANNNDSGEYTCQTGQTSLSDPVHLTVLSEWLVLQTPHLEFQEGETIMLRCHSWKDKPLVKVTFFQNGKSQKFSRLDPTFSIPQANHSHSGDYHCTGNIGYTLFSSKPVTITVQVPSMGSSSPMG
Description: SPR.
On to B1, for which the “Fold vs WT IgG1” value was determined as 2.33 fold and the Kd was 369 nM.

On to B2, for which the “Fold vs WT IgG1” value came out at 48.2 fold and binding was put at a Kd of 17.8 nM.

With B3, the “Fold vs WT IgG1” value was 20.7 fold and the Kd worked out at 41.6 nM.

For B4, the “Fold vs WT IgG1” value turned out to be 98.9 fold and the Kd worked out at 8.68 nM.

As for B5, the “Fold vs WT IgG1” value came to 9.67 fold and the dissociation constant (Kd) was 88.8 nM.

With B6, the “Fold vs WT IgG1” value is 16.7 fold and the dissociation constant (Kd) came out at 51.3 nM.

Take B7: the “Fold vs WT IgG1” value stood at 13 fold and the Kd amounted to 66.1 nM.

Consider B8, for which the “Fold vs WT IgG1” value is 171 fold and binding was characterised by a dissociation constant (Kd) of 5.02 nM.

On to B9, for which the “Fold vs WT IgG1” value amounted to 133 fold and the Kd turned out to be 6.45 nM.

With B10, the “Fold vs WT IgG1” value amounted to 0.666 fold and the Kd turned out to be 1290 nM.

A further experiment concerns the target T4, human FcγRIIa (131H), His- and GST-tagged (human, UniProt P12318 34-217).
T4 construct: also called H131 FcγRIIa; HIIa; not shown: 6xHis and GST tags of the pTT5 vector
T4 sequence (looked up): T3 sequence (looked up) with R134H
Description: SPR.
As for B1, the “Fold vs WT IgG1” value worked out at 3.76 fold and the dissociation constant (Kd) stood at 172 nM.

For B2, the “Fold vs WT IgG1” value is 0.157 fold and binding was characterised by a dissociation constant (Kd) of 4130 nM.

For the molecule B3, the “Fold vs WT IgG1” value was found to be 0.509 fold and the Kd was 1270 nM.

Turning to B4, the “Fold vs WT IgG1” value was 1.05 fold and the affinity, expressed as Kd, was 617 nM.

For the molecule B5, the binding result is “no binding”.

For B7, the binding result is on record as “no binding”.

For B8, the “Fold vs WT IgG1” value came out at 0.758 fold and the Kd is 853 nM.

B9: the “Fold vs WT IgG1” value was 0.275 fold and binding was characterised by a dissociation constant (Kd) of 2350 nM.

In the case of B10, the “Fold vs WT IgG1” value turned out to be 0.181 fold and the affinity, expressed as Kd, was 3580 nM.

For the next experiment, the target named is T5, human FcγRIIIa (158V), His- and GST-tagged (human, UniProt P08637 17-208).
T5 construct: also called V158 FcγRIIIa; VIIIa; not shown: 6xHis and GST tags of the pTT5 vector
T5 sequence (P08637 17-208 F176V): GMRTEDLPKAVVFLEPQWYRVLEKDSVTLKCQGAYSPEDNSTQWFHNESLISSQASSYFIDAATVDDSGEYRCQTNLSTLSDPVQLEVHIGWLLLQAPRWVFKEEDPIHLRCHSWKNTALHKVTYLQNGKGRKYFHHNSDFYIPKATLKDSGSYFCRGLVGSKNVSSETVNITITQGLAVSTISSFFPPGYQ
Description: SPR.
On to B1, for which the “Fold vs WT IgG1” value was 0.00367 fold and binding was put at a Kd of 52200 nM.

As for B2, the “Fold vs WT IgG1” value was determined as 0.428 fold and the Kd is 447 nM.

B3: the “Fold vs WT IgG1” value was determined as 0.0938 fold and binding was characterised by a dissociation constant (Kd) of 2040 nM.

Regarding B4, the “Fold vs WT IgG1” value was 2.6 fold and binding was put at a Kd of 73.5 nM.

Consider B5, for which the binding result is on record as “no binding”.

For B6, the “Fold vs WT IgG1” value amounted to 0.00199 fold and the dissociation constant (Kd) came out at 96300 nM.

As for B7, the binding result was “no binding”.

With B8, the binding result is reported as “no binding”.

With B9, the binding result is recorded as “no binding”.

Turning to B10, the “Fold vs WT IgG1” value stood at 0.903 fold and the Kd amounted to 212 nM.

A further experiment addresses T6, mFcγRIIb (Mus musculus, UniProt P08101).
T6 construct: extracellular region, C-terminal His- and GST-tag; also called mouse FcγRII
T6 sequence (receptor extracellular region, looked up): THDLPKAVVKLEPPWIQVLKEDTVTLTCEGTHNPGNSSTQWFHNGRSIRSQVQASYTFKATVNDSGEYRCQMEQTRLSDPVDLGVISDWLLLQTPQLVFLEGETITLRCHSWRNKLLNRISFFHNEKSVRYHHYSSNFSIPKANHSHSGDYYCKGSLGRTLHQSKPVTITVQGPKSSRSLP
Description: SPR.
For B6, the “Fold vs WT IgG1 (off-rate)” value is 0.971 fold.

The target of a further experiment is T7, cynoFcγRIIb (Macaca fascicularis, UniProt A0A140HDP4).
T7 construct: extracellular region, C-terminal His- and GST-tag; also called cynomolgus monkey FcγRIIb
T7 sequence (receptor extracellular region): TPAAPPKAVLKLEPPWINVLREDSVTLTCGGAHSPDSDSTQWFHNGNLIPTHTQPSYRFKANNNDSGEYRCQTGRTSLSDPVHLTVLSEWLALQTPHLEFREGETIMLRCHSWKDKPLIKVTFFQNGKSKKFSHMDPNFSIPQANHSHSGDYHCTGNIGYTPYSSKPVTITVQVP
Description: SPR.
Regarding B1, the “Fold vs WT IgG1 (Kd)” value amounted to 3.55 fold.

Turning to B6, the “Fold vs WT IgG1 (off-rate)” value came out at 0.697 fold.

In another experiment the target is T8, cynoFcγRIIIa (Macaca fascicularis, UniProt Q8SPW2).
T8 construct: extracellular region, C-terminal His- and GST-tag; also called cynomolgus monkey FcγRIIIa
T8 sequence (Q8SPW2 17-208): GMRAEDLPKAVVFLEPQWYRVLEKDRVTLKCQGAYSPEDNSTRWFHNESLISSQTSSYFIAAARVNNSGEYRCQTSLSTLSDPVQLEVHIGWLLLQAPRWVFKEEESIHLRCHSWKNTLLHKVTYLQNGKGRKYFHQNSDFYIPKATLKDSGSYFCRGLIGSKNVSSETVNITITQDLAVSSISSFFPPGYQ
Description: SPR.
B1: the “Fold vs WT IgG1 (Kd)” value amounted to 1.45 fold.

In general, Kd refers to the concentration at which binding is half-saturated. Read a low Kd as higher affinity.

For the origin of these results see US20130315910A1 (Xencor, published 2013).
